Measurements from the supplement of paper PMC11316812.
± gives the standard deviation of the averaged measurements.

Tests used:
hTERT-HMEC = test: percentage of EdU-negative (G0-arrested) nuclei per well, 72 h; higher = more G0 arrest; settings: reference: sequence is the full UniProt precursor, the tested protein was the secreted form or ectodomain
MCF7 = test: as above; settings: reference: sequence is the full UniProt precursor, the tested protein was the secreted form or ectodomain
[1] = protein concentration 0.0145 µM
[2] = protein concentration 0.0175 µM
[3] = protein concentration 0.0225 µM
[4] = protein concentration 0.02535 µM
[5] = protein concentration 0.2535 µM
[6] = protein concentration 0.0257143 µM
[7] = protein concentration 0.257143 µM
[8] = protein concentration 0.0357143 µM
[9] = protein concentration 0.357143 µM
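Further: secreted proteins added to cultured cells, EdU pulse at the end, nuclei found by Hoechst imaging, EdU status from nuclear versus surrounding ring intensity ratio, PBS as neutral control.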

MKLCVTVLSLLVLVAAFCSLALSAPMGSDPPTACCFSYTARKLPRNFVVDYYETSSLCSQPAVVFQTKRGKQVCADPSESWVQEYVYDLELN [Q8NHW4]
percentage of EdU-negative (hTERT-HMEC; [1]): 5.26 ± 0.85%
percentage of EdU-negative (hTERT-HMEC; protein concentration 0.145 µM): 6.68 ± 1.3%
percentage of EdU-negative (MCF7; [1]): 23.4 ± 2%
percentage of EdU-negative (MCF7; protein concentration 0.145 µM): 25.62 ± 0.055%

P16144
percentage of EdU-negative (hTERT-HMEC; [2]): 5.31 ± 0.28%
percentage of EdU-negative (hTERT-HMEC; protein concentration 0.175 µM): 5.29 ± 0.16%
percentage of EdU-negative (MCF7; [2]): 24.1 ± 3.2%
percentage of EdU-negative (MCF7; protein concentration 0.175 µM): 28.6 ± 0.6%

MDPQCTMGLSNILFVMAFLLSGAAPLKIQAYFNETADLPCQFANSQNQSLSELVVFWQDQENLVLNEVYLGKEKFDSVHSKYMGRTSFDSDSWTLRLHNLQIKDKGLYQCIIHHKKPTGMIRIHQMNSELSVLANFSQPEIVPISNITENVYINLTCSSIHGYPEPKKMSVLLRTKNSTIEYDGVMQKSQDNVTELYDVSISLSVSFPDVTSNMTIFCILETDKTRLLSSPFSIELEDPQPPPDHIPWITAVLPTVIICVMVFCLILWKWKKKKRPRNSYKCGTNTMEREESEQTKKREKIHIPERSDEAQRVFKSSKTSSCDKSDTCF
percentage of EdU-negative (hTERT-HMEC; [3]): 4.6 ± 0.096%
percentage of EdU-negative (hTERT-HMEC; protein concentration 0.225 µM): 6.71 ± 0.18%
percentage of EdU-negative (MCF7; [3]): 24 ± 1.6%
percentage of EdU-negative (MCF7; protein concentration 0.225 µM): 25.9 ± 0.81%

MGFWILAILTILMYSTAAKFSKQSWGLENEALIVRCPRQGKPSYTVDWYYSQTNKSIPTQERNRVFASGQLLKFLPAAVADSGIYTCIVRSPTFNRTGYANVTIYKKQSDCNVPDYLMYSTVSGSEKNSKIYCPTIDLYNWTAPLEWFKNCQALQGSRYRAHKSFLVIDNVMTEDAGDYTCKFIHNENGANYSVTATRSFTVKDEQGFSLFPVIGAPAQNEIKEVEIGKNANLTCSACFGKGTQFLAAVLWQLNGTKITDFGEPRIQQEEGQNQSFSNGLACLDMVLRIADVKEEDLLLQYDCLALNLHGLRRHTVRLSRKNPIDHHSIYCIIAVCSVFLMLINVLVIILKMFWIEATLLWRDIAKPYKTRNDGKLYDAYVVYPRNYKSSTDGASRVEHFVHQILPDVLENKCGYTLCIYGRDMLPGEDVVTAVETNIRKSRRHIFILTPQITHNKEFAYEQEVALHCALIQNDAKVILIEMEALSELDMLQAEALQDSLQHLMKVQGTIKWREDHIANKRSLNSKFWKHVRYQMPVPSKIPRKASSLTPLAAQKQ
percentage of EdU-negative (hTERT-HMEC; [4]): 5.463 ± 0.046%
percentage of EdU-negative (hTERT-HMEC; [5]): 5.2 ± 0.66%
percentage of EdU-negative (MCF7; [4]): 23.7 ± 0.79%
percentage of EdU-negative (MCF7; [5]): 25.9 ± 0.45%

MAAAAMAAAAGGGAGAARSLSRFRGCLAGALLGDCVGSFYEAHDTVDLTSVLRHVQSLEPDPGTPGSERTEALYYTDDTAMARALVQSLLAKEAFDEVDMAHRFAQEYKKDPDRGYGAGVVTVFKKLLNPKCRDVFEPARAQFNGKGSYGNGGAMRVAGISLAYSSVQDVQKFARLSAQLTHASSLGYNGAILQALAVHLALQGESSSEHFLKQLLGHMEDLEGDAQSVLDARELGMEERPYSSRLKKIGELLDQASVTREEVVSELGNGIAAFESVPTAIYCFLRCMEPDPEIPSAFNSLQRTLIYSISLGGDTDTIATMAGAIAGAYYGMDQVPESWQQSCEGYEETDILAQSLHRVFQKS [Q9NX46]
percentage of EdU-negative (hTERT-HMEC; [3]): 4.73 ± 1.1%
percentage of EdU-negative (hTERT-HMEC; protein concentration 0.225 µM): 7.08 ± 0.11%
percentage of EdU-negative (MCF7; [3]): 24.5 ± 2.2%
percentage of EdU-negative (MCF7; protein concentration 0.225 µM): 29.1 ± 3.5%

MKVLLCDLLLLSLFSSVFSSCQRDCLTCQEKLHPALDSFDLEVCILECEEKVFPSPLWTPCTKVMARSSWQLSPAAPEHVAAALYQPRASEMQHLRRMPRVRSLFQEQEEPEPGMEEAGEMEQKQLQKRFGGFTGARKSARKLANQKRFSEFMRQYLVLSMQSSQRRRTLHQNGNV
percentage of EdU-negative (hTERT-HMEC; [6]): 4.77 ± 0.15%
percentage of EdU-negative (hTERT-HMEC; [7]): 5.6 ± 0.068%
percentage of EdU-negative (MCF7; [6]): 24.9 ± 0.7%
percentage of EdU-negative (MCF7; [7]): 27.5 ± 0.28%

MGKSASKQFHNEVLKAHNEYRQKHGVPPLKLCKNLNREAQQYSEALASTRILKHSPESSRGQCGENLAWASYDQTGKEVADRWYSEIKNYNFQQPGFTSGTGHFTAMVWKNTKKMGVGKASASDGSSFVVARYFPAGNVVNEGFFEENVLPPKK [Q9H4G4]
percentage of EdU-negative (hTERT-HMEC; [8]): 4.55 ± 0.31%
percentage of EdU-negative (hTERT-HMEC; [9]): 7.6 ± 0.95%
percentage of EdU-negative (MCF7; [8]): 25.6 ± 0.71%
percentage of EdU-negative (MCF7; [9]): 24.5 ± 0.79%

MKPVLPLQFLVVFCLALQLVPGSPKQRVLKYILEPPPCISAPENCTHLCTMQEDCEKGFQCCSSFCGIVCSSETFQKRNRIKHKGSEVIMPAN [Q8IUB5]
percentage of EdU-negative (hTERT-HMEC; [3]): 4.99 ± 0.22%
percentage of EdU-negative (hTERT-HMEC; protein concentration 0.225 µM): 5.21 ± 0.23%
percentage of EdU-negative (MCF7; [3]): 25.88 ± 0.11%
percentage of EdU-negative (MCF7; protein concentration 0.225 µM): 23.6 ± 1%

MTARAWASWRSSALLLLLVPGYFPLSHPMTVAGPVGGSLSVQCRYEKEHRTLNKFWCRPPQILRCDKIVETKGSAGKRNGRVSIRDSPANLSFTVTLENLTEEDAGTYWCGVDTPWLRDFHDPIVEVEVSVFPAGTTTASSPQSSMGTSGPPTKLPVHTWPSVTRKDSPEPSPHPGSLFSNVRFLLLVLLELPLLLSMLGAVLWVNRPQRSSRSRQNWPKGENQ
percentage of EdU-negative (hTERT-HMEC; [3]): 5.08 ± 0.64%
percentage of EdU-negative (hTERT-HMEC; protein concentration 0.225 µM): 12.4 ± 10%
percentage of EdU-negative (MCF7; [3]): 26.2 ± 3.7%
percentage of EdU-negative (MCF7; protein concentration 0.225 µM): 23.5 ± 0.75%
